Numbering of substitutions follows the chain as printed. Names may count otherwise. Each block holds one binder with its values, some of them ahead of it.
Tests used:
[1] = molecular target: Fc-His-TL1A (TL1W61) (human); assay: ELISA; reversed format: TL1A molecules immobilised, DR3 titrated
[2] = molecular target: T1, Recombinant DR3-Fc, Q93038; assay: ELISA; details: chain shown with the change; value read at the highest DR3-Fc concentration point, about 1000 nM; parent: est. 130; read off a plot
T1 chain: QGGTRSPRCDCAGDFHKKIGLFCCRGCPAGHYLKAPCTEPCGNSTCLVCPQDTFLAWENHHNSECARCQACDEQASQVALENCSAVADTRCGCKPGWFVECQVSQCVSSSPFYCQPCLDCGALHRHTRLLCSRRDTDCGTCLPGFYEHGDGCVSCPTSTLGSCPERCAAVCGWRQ

[3] = recombinant expression, Expi293; details: glycan lost; control: wild type
[4] = glycan lost; control: wild type

B2: His-TL1A (TL1W2), O95150 C162L; C202L (protein)
chain: VYAPLRADGDKPRAHLTVVRQTPTQHFKNQFPALHWEHELGLAFTKNRMNYTNKFLLIPESGDYFIYSQVTFRGMTSELSEIRQAGRPNKPDSITVVITKVTDSYPEPTQLLMGTKSVLEVGSNWFQPIYLGAMFSLQEGDKLMVNVSDISLVDYTKEDKTFFGAFLL
- response (x 10^6 chemiluminescence) [2]: 21

B3: His-TL1A (TL1W2), O95150 C162S (protein)
chain: MAEDLGLSFGETASVEMLPEHGSCRPKARSSSARWALTCCLVLLPFLAGLTTYLLVSQLRAQGEACVQFQALKGQEFAPSHQQVYAPLRADGDKPRAHLTVVRQTPTQHFKNQFPALHWEHELGLAFTKNRMNYTNKFLLIPESGDYFIYSQVTFRGMTSESSEIRQAGRPNKPDSITVVITKVTDSYPEPTQLLMGTKSVCEVGSNWFQPIYLGAMFSLQEGDKLMVNVSDISLVDYTKEDKTFFGAFLL
- response (x 10^6 chemiluminescence) [2]: 10

B5: TL1A (TNFSF15): N133Q (protein)
parent chain: B3 chain with S162C
- expression_or_secretion [3]: no change
- other: solubility [4]: no change

Second part, the binder after the results:

- EC50 [1]: 2.2 nM
B1: Recombinant DR3-Fc (Fc fusion)
chain: T1 chain

- response (x 10^6 chemiluminescence) [2]: 9
B4: His-TL1A (TL1W2), O95150 C202S (protein)
chain: B3 chain with S162C, C202S
